Tests used:
Experiment in all cases: ELISA on coated peptide
[1] = biological target: T1, CCR5 (residues 1-18) derived peptide sulfated at 1st tyrosine position
T1 sequence (peptide, sulfated at 1st tyrosine position): MDYQVSSPIYDINYYTSE

[2] = biological target: T2, CCR5 (residues 1-18) derived peptide sulfated at 3rd tyrosine position
T2 sequence (peptide, sulfated at 3rd tyrosine position): MDYQVSSPIYDINYYTSE

[3] = biological target: T3, PSGL-1 (residues 42-58) derived peptide sulfated at 2nd tyrosine position
T3 sequence (peptide, sulfated at 2nd tyrosine position): QATEYEYLDYDFLPETE

[4] = biological target: T4, CCR5 (residues 1-18) derived peptide, non-sulfated
T4 sequence (peptide): MDYQVSSPIYDINYYTSE

[5] = biological target: T5, PSGL-1 (residues 42-58) derived peptide, non-sulfated
T5 sequence (peptide): QATEYEYLDYDFLPETE

[6] = biological target: T6, CCR5 (residues 1-18) derived peptide sulfated at 2nd tyrosine position
T6 sequence (peptide, sulfated at 2nd tyrosine position): MDYQVSSPIYDINYYTSE

[7] = biological target: T7, PSGL-1 (residues 42-58) derived peptide sulfated at 1st tyrosine position
T7 sequence (peptide, sulfated at 1st tyrosine position): QATEYEYLDYDFLPETE

[8] = biological target: T8, GPIb (residues 268-285) derived peptide sulfated at 3rd tyrosine position
T8 sequence (peptide, sulfated at 3rd tyrosine position): GDEGDTDLYDYYPEEDTE

[9] = biological target: T9, GPIb (residues 268-285) derived peptide sulfated at 1st tyrosine position
T9 sequence (peptide, sulfated at 1st tyrosine position): GDEGDTDLYDYYPEEDTE

[10] = biological target: T10, PSGL-1 (residues 42-58) derived peptide sulfated at 3rd tyrosine position
T10 sequence (peptide, sulfated at 3rd tyrosine position): QATEYEYLDYDFLPETE

[11] = biological target: T11, GPIb (residues 268-285) derived peptide, non-sulfated
T11 sequence (peptide): GDEGDTDLYDYYPEEDTE

- ELISA reading at 450 nm [1]: 0.06
- ELISA reading at 450 nm [2]: 0.06
- ELISA reading at 450 nm [3]: 0.06
- ELISA reading at 450 nm [4]: 0.06
- ELISA reading at 450 nm [5]: 0.06
- ELISA reading at 450 nm [6]: 0.06
- ELISA reading at 450 nm [7]: 0.06
- ELISA reading at 450 nm [8]: 0.07
- ELISA reading at 450 nm [9]: 0.07
- ELISA reading at 450 nm [10]: 0.06
- ELISA reading at 450 nm [11]: 0.07
Substance: N06 scFv (negative control)

Source: patent US20050266009A1
